# Experimental data published in patent EP2468767B1 (dated 2007).
# B1: IR485 (human insulin receptor residues 1-485 with enterokinase site and c-myc tag) (receptor)
# chain: HLYPGEVCPGMDIRNNLTRLHELENCSVIEGHLQILLMFKTRPEDFRDLSFPKLIMITDYLLLFRVYGLESLKDLFPNLTVIRGSRLFFNYALVIFEMVHLKELGLYNLMNITRGSVRIEKNNELCYLATIDWSRILDSVEDNYIVLNKDDNEECGDICPGTAKGKTNCPATVINGQFVERCWTHSHCQKVCPTICKSHGCTAEGLCCHSECLGNCSQPDDPTKCVACRNFYLDGRCVETCPPPYYHFQDWRCVNFSFCQDLHHKCKNSRRQGCHQYVIHNNKCIPECPSGYTMNSSNLLCTPCLGPCPKVCHLLEGEKTIDSVTSAQELRGCTVINGSLIINIRGGNNLAAELEANLGLIEEISGYLKIRRSYALVSLSFFRKLRLIRGETLEIGNYSFYALDNQNLRQLWDWSKHNLTITQGKLFFHYNPKLCLSEIHKMEEVSGTKGRQERNDIALKTNGDQASCENELLKFSYIRTSFDKISDDDDKEQKLISEEDLN
# Target: the molecule itself
# Assay: gel filtration on Superdex 200 HR
protein,measurement,value
B1,binding result,binds
